Measured values from patent US20250073311A1, “DOSAGE REGIME” (ZEALAND PHARMA A/S, priority 2021, published 2025).
Numbered stars: 1 amine (or outer) side, 2 acyl side, 3 side chain; on linkers, the order of the positions; unused ones are H or OH. Square brackets hold non-standard residues; d marks the D form. Side chains are listed from the residue outwards. * marks the point of attachment. C18 diacid = O=C(O)CCCCCCCCCCCCCCCCC(=O)*; γGlu = O=C(O)[C@H](CCC(=O)[*:2])N[*:1]; Aib = CC(C)(N)C(=O)O

T1: human GLP-2 receptor (hGLP2-R) (human, UniProt O95838)
T1 sequence: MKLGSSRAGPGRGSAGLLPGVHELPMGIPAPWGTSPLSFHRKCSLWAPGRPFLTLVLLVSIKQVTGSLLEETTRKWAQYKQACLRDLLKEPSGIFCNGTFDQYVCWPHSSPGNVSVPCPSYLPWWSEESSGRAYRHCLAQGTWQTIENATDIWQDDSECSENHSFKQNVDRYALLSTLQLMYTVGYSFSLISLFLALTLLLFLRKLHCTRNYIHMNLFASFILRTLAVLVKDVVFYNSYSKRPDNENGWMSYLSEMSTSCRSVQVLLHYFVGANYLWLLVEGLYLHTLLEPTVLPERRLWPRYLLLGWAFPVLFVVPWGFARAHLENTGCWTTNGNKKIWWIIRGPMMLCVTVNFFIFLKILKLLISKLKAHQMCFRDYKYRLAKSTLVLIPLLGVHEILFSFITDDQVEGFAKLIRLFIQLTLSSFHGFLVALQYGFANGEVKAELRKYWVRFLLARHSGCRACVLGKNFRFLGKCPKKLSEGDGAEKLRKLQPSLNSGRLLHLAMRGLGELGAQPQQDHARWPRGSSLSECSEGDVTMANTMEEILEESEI


Assays:
[1] = target: human glucagon-like peptide 1 receptor (GLP-1R) (human, UniProt P43220); assay: cell-based or functional assay
[2] = target: T1, human GLP-2 receptor (hGLP2-R); assay: cell-based or functional assay

Binder | EC50 GLP-1 (nM), cAMP AlphaScreen [1] [nM] | EC50 GLP-2 (nM), cAMP AlphaScreen [2] [nM]
H-H[Aib]EGTFTSELATILDK([γGlu-C18 diacid])LAARDFIAWLIEHKITD-OH (SMILES CC[C@H](C)[C@H](NC(=O)[C@H](Cc1ccccc1)NC(=O)[C@H](CC(=O)O)NC(=O)[C@H](CCCNC(=N)N)NC(=O)[C@H](C)NC(=O)[C@H](C)NC(=O)[C@H](CC(C)C)NC(=O)[C@H](CCCCNC(=O)CC[C@H](NC(=O)CCCCCCCCCCCCCCCCC(=O)O)C(=O)O)NC(=O)[C@H](CC(=O)O)NC(=O)[C@H](CC(C)C)NC(=O)[C@@H](NC(=O)[C@@H](NC(=O)[C@H](C)NC(=O)[C@H](CC(C)C)NC(=O)[C@H](CCC(=O)O)NC(=O)[C@H](CO)NC(=O)[C@@H](NC(=O)[C@H](Cc1ccccc1)NC(=O)[C@@H](NC(=O)CNC(=O)[C@H](CCC(=O)O)NC(=O)C(C)(C)NC(=O)[C@@H](N)Cc1c[nH]cn1)[C@@H](C)O)[C@@H](C)O)[C@@H](C)O)[C@@H](C)CC)C(=O)N[C@@H](C)C(=O)N[C@@H](Cc1c[nH]c2ccccc12)C(=O)N[C@@H](CC(C)C)C(=O)N[C@H](C(=O)N[C@@H](CCC(=O)O)C(=O)N[C@@H](Cc1c[nH]cn1)C(=O)N[C@@H](CCCCN)C(=O)N[C@H](C(=O)N[C@H](C(=O)N[C@@H](CC(=O)O)C(=O)O)[C@@H](C)O)[C@@H](C)CC)[C@@H](C)CC) [Compound 12] | 0.14 | 0.11
H-H[Aib]EGSFTSELATILDK([γGlu-C18 diacid])LAARDFIAWLIAHKITD-OH (SMILES CC[C@H](C)[C@H](NC(=O)[C@H](CC(C)C)NC(=O)[C@H](Cc1c[nH]c2ccccc12)NC(=O)[C@H](C)NC(=O)[C@@H](NC(=O)[C@H](Cc1ccccc1)NC(=O)[C@H](CC(=O)O)NC(=O)[C@H](CCCNC(=N)N)NC(=O)[C@H](C)NC(=O)[C@H](C)NC(=O)[C@H](CC(C)C)NC(=O)[C@H](CCCCNC(=O)CC[C@H](NC(=O)CCCCCCCCCCCCCCCCC(=O)O)C(=O)O)NC(=O)[C@H](CC(=O)O)NC(=O)[C@H](CC(C)C)NC(=O)[C@@H](NC(=O)[C@@H](NC(=O)[C@H](C)NC(=O)[C@H](CC(C)C)NC(=O)[C@H](CCC(=O)O)NC(=O)[C@H](CO)NC(=O)[C@@H](NC(=O)[C@H](Cc1ccccc1)NC(=O)[C@H](CO)NC(=O)CNC(=O)[C@H](CCC(=O)O)NC(=O)C(C)(C)NC(=O)[C@@H](N)Cc1c[nH]cn1)[C@@H](C)O)[C@@H](C)O)[C@@H](C)CC)[C@@H](C)CC)C(=O)N[C@@H](C)C(=O)N[C@@H](Cc1c[nH]cn1)C(=O)N[C@@H](CCCCN)C(=O)N[C@H](C(=O)N[C@H](C(=O)N[C@@H](CC(=O)O)C(=O)O)[C@@H](C)O)[C@@H](C)CC) [Compound 14] | 0.57 | 0.086

Further lines, results first:

EC50 GLP-1 (nM), cAMP AlphaScreen [1] [nM] | EC50 GLP-2 (nM), cAMP AlphaScreen [2] [nM] | Binder
2.2 | 0.099 | H-H[Aib]EGTFSSELATILDK([γGlu-C18 diacid])LAARDFIAWLIAHKITD-OH (SMILES CC[C@H](C)[C@H](NC(=O)[C@H](CC(C)C)NC(=O)[C@H](Cc1c[nH]c2ccccc12)NC(=O)[C@H](C)NC(=O)[C@@H](NC(=O)[C@H](Cc1ccccc1)NC(=O)[C@H](CC(=O)O)NC(=O)[C@H](CCCNC(=N)N)NC(=O)[C@H](C)NC(=O)[C@H](C)NC(=O)[C@H](CC(C)C)NC(=O)[C@H](CCCCNC(=O)CC[C@H](NC(=O)CCCCCCCCCCCCCCCCC(=O)O)C(=O)O)NC(=O)[C@H](CC(=O)O)NC(=O)[C@H](CC(C)C)NC(=O)[C@@H](NC(=O)[C@@H](NC(=O)[C@H](C)NC(=O)[C@H](CC(C)C)NC(=O)[C@H](CCC(=O)O)NC(=O)[C@H](CO)NC(=O)[C@H](CO)NC(=O)[C@H](Cc1ccccc1)NC(=O)[C@@H](NC(=O)CNC(=O)[C@H](CCC(=O)O)NC(=O)C(C)(C)NC(=O)[C@@H](N)Cc1c[nH]cn1)[C@@H](C)O)[C@@H](C)O)[C@@H](C)CC)[C@@H](C)CC)C(=O)N[C@@H](C)C(=O)N[C@@H](Cc1c[nH]cn1)C(=O)N[C@@H](CCCCN)C(=O)N[C@H](C(=O)N[C@H](C(=O)N[C@@H](CC(=O)O)C(=O)O)[C@@H](C)O)[C@@H](C)CC) [Compound 13]
0.073 | 0.68 | H-H[Aib]EGTFTSELATILDK([γGlu-C18 diacid])EAARLFIAWLIEHKITD-OH (SMILES CC[C@H](C)[C@H](NC(=O)[C@H](Cc1ccccc1)NC(=O)[C@H](CC(C)C)NC(=O)[C@H](CCCNC(=N)N)NC(=O)[C@H](C)NC(=O)[C@H](C)NC(=O)[C@H](CCC(=O)O)NC(=O)[C@H](CCCCNC(=O)CC[C@H](NC(=O)CCCCCCCCCCCCCCCCC(=O)O)C(=O)O)NC(=O)[C@H](CC(=O)O)NC(=O)[C@H](CC(C)C)NC(=O)[C@@H](NC(=O)[C@@H](NC(=O)[C@H](C)NC(=O)[C@H](CC(C)C)NC(=O)[C@H](CCC(=O)O)NC(=O)[C@H](CO)NC(=O)[C@@H](NC(=O)[C@H](Cc1ccccc1)NC(=O)[C@@H](NC(=O)CNC(=O)[C@H](CCC(=O)O)NC(=O)C(C)(C)NC(=O)[C@@H](N)Cc1c[nH]cn1)[C@@H](C)O)[C@@H](C)O)[C@@H](C)O)[C@@H](C)CC)C(=O)N[C@@H](C)C(=O)N[C@@H](Cc1c[nH]c2ccccc12)C(=O)N[C@@H](CC(C)C)C(=O)N[C@H](C(=O)N[C@@H](CCC(=O)O)C(=O)N[C@@H](Cc1c[nH]cn1)C(=O)N[C@@H](CCCCN)C(=O)N[C@H](C(=O)N[C@H](C(=O)N[C@@H](CC(=O)O)C(=O)O)[C@@H](C)O)[C@@H](C)CC)[C@@H](C)CC) [Compound 16]
0.25 | 0.16 | H-H[Aib]EGTFTSELATILDK([γGlu-C18 diacid])LAARDFIAWLIAHKITD-OH (SMILES CC[C@H](C)[C@H](NC(=O)[C@H](CC(C)C)NC(=O)[C@H](Cc1c[nH]c2ccccc12)NC(=O)[C@H](C)NC(=O)[C@@H](NC(=O)[C@H](Cc1ccccc1)NC(=O)[C@H](CC(=O)O)NC(=O)[C@H](CCCNC(=N)N)NC(=O)[C@H](C)NC(=O)[C@H](C)NC(=O)[C@H](CC(C)C)NC(=O)[C@H](CCCCNC(=O)CC[C@H](NC(=O)CCCCCCCCCCCCCCCCC(=O)O)C(=O)O)NC(=O)[C@H](CC(=O)O)NC(=O)[C@H](CC(C)C)NC(=O)[C@@H](NC(=O)[C@@H](NC(=O)[C@H](C)NC(=O)[C@H](CC(C)C)NC(=O)[C@H](CCC(=O)O)NC(=O)[C@H](CO)NC(=O)[C@@H](NC(=O)[C@H](Cc1ccccc1)NC(=O)[C@@H](NC(=O)CNC(=O)[C@H](CCC(=O)O)NC(=O)C(C)(C)NC(=O)[C@@H](N)Cc1c[nH]cn1)[C@@H](C)O)[C@@H](C)O)[C@@H](C)O)[C@@H](C)CC)[C@@H](C)CC)C(=O)N[C@@H](C)C(=O)N[C@@H](Cc1c[nH]cn1)C(=O)N[C@@H](CCCCN)C(=O)N[C@H](C(=O)N[C@H](C(=O)N[C@@H](CC(=O)O)C(=O)O)[C@@H](C)O)[C@@H](C)CC) [Compound 15]
